The source of these data is a protein production outcome set (Wang et al. 2014).

The series is described as follows: label from the status in PepcDB records.
For the sequence “MTLPRLILPLLIAAACALGGCAYNPDLGRDQLLIVNDNNLARDGEKAWADALRTSHVSKEPRKNARVQAVGQRVIVAAGLAGRPWEYAVFLEEAPNAFVLPGGYVGVTVGLLSLVENDDQLAAVIGHEAGHVVARHAAERVSQETTSKVLLGIAKAAAGGTEFGKLLKDHGEDATRYGLLLPFSRKQELEADKLGVDFMQRAGYRPREAVKLWRNMQALDGGKSGGDLGSTHPSDAVRIQELERYLASKGWLEHHHHHH”, the protein production result is reported as “failed”.

As to “MTLPRRSGIRALPARGPTMESILGSFLLVAASEMGDKTQLLAFSLATRFRKPWPIMAGILVATLANHGLASSLGAWISANVPARMLAGVLALTFLMFGLWTLRPDSLEASKGPERFGAFLTTTVLFFLAEMGDKTQLATVALAARYGDVIRVTAGTTLGMLAADGLAVFLGEKLAARVSSARIRWAAAGLFFLFGLISAWAAIFG”, the protein production result is listed as “failed”.

Regarding “MTLPSTPMPPAGSRKILLDDFQHVGSESHLGQCVNRSWTRHNCGHLENASIICTSEGMALSPHLDGNRQPSNLDNLREKAFLYQRHQHLLKFHHQLPAAGACMEVRLLNGTGRCLGRVEVLIQGTWGTVCDHFWNLAEAAVVCRQLQCGQAMAAHFGASSGKVLLDDMQCVGSKSHLGRCVHRGWARHNCGHLEDASVICAGEGLVVNLHLEGCF”, the protein production entry is recorded as “failed”.

In the case of “MTLQETLNSEYQISFEEAQATAKIVDDLAEAEQKLKNLERQIKALGPINLDAIAQFDEVNERFTFLSSQKDDLLEAKNLLLSTIDDMNDEVKIRFKTSFDAIRESFKTTFAQMFVSGLADLELTSDNLLEAGVEIKVQPPGKKLSSLNLMSGGEKALTALALIFAILRVRTVPFVVLDEVEAALDEANVKRFGDYMNHFDNSNQFIVVTHRRGTMAAAGSMYGVTMADAGVSKMISVKLDSAIN”, the protein production result was “failed”.

As for “MTLSGGGSASDMSGQTVLTAEDVDIDVVGEGDDGLEEKDSDAGCDSPAGPPELRLDEADEVPPAAPHHGQPQPPHQQPLTLPKEAAGAGAGPGGDVGAPEADGCKGGVGGEEGGASGGGPGAGSGSAGGLAPSKPKNSLVKPPYSYIALITMAILQSPQKKLTLSGICEFISNRFPYYREKFPAWQNSIRHNLSLNDCFVKIPREPGNPGKGNYWTLDPQSEDMFDNGSFLRRRKRFKRHQQEHLREQTALMMQSFGAYSLAAAAGAAGPYGRPYGLHPAAAAGAYSHPAAAAAAAAAAALQYPYALPPVAPVLPPAVPLLPSGELGRKAAAFGSQLGPGLQLQLNSLGAAAAAAGTAGAAGTTASLIKSEPSARPSFSIENIIGGGPAAPGGSAVGAGVAGGTGGSGGGSTAQSFLRPPGTVQSAALMATHQPLSLSRTTATIAPILSVPLSGQFLQPAASAAAAAAAAAQAKWPAQ”, the protein production result is reported as “failed”.

For the sequence “MTLTALFAAFCGLYLLIGGAWLVVLGGSWYYPIAGLVMLGVTVMLFRGKRAALWLYAALLLATMIWGVWEVGFDFWALTPRSDILVFFGIWLILPFVWRRLPVPSAGAVGALVVALLISGGMLTWAGFNDPQEVNGTLSADATPAAPISTVADGDWPAYGRNQEGQRFSPLKQINADNVKNLKEAWVFRTGDLKQPNDPGEITNEVTPIKVGDTLFLCTAHQRLFALDAATGKEKWHFDPQLNADPSFQHVTCRGVSYHEAKADNAPADVVADCPRRIILPVNDGRLFAVNADNGKLCETFANKGILNLQTNMPVTTPGMYEPTSPPIITDKTIVIAGAVTDNFSTREPSGVIRGFDVNTGKLLWAFDPGAKDPNAIPSDEHHFTLNSPNSWAPAAYDAKLDLVYLPMGVTTPDIWGGNRTPEQERYASSIVALNATTGKLAWSYQTVHHDLWDMDMPSQPTLADIEVNGKTVPVIYAPAKTGNIFVLDRRNGELVVPAPEKPVPQGAAKGDYVTKTQPFSDLSFRPKKDLTGADMWGATMFDQLVCRVIFHQLRYEGIFTPPSEQGTLVFPGNLGMFEWGGISVDPNRQVAIANPMALPFVSKLIPRGPGNPMEPPKDAKGSGTESGVQPQYGVPYGVTLNPFLSPFGLPCKQPAWGYISALDLKTNEVVWKKRIGTPQDSLPFPMPVKLPFTMGMPMLGGPISTAGNVLFIGATADNYLRAYNMSNGEKLWEARLPAGGQATPMTYEVNGKQYVVISAGGHGSFGTKMGDYIVAYALPDDAK”, the protein production entry is given as “failed”.

In the case of “MTLTPQELQTYLAALVRQNLQIATMIWGPPGVGKSSVVAQVARQHDLDFVDVRLSQLAPTDLRGLPVPEADAQGSGVSRWYPPEFLPRAGAGILFLDEVNMAPPTMQGMAQQLILDRRVGSYELPDGWFVWAAGNRKEDRASVFDMPAPLANRFLHLTVRPDFDSWRSYALAKGLHEHVIAFLTFRPELLWRLDPQQPAWPSPRSWEMAAQLHRAGLDASSAIGEAAGAEFAAFVRLFEQLPDLGTVLSGAGAGLKLPDEPSVRYAAVVGLAARAADAEEAYRAFTWLADSAGPEWLQLYVATLVSKFQALGQLGELAGLLGRDPRLAELVQGALSLAEGLEHHHHHH”, the protein production result is listed as “failed”.

For “MTLTSSQKPFRLLVGDREVQESDLAALLQKHQLLPELVKRMRFAQVIEGIEVQPDVLEQECQAWCKQNGIAPQQLPQLLAQQQISLEQWMSSVENRLRLRLFQEREFSHRAENRFLKRKSQLDLVTYSLLRHSDGHLIQELYQQLLHGEATFEDLATQFSQGHEAKTAGKLGPVPLSQPHPALAEVLRTAQPGQILPPRNLESYWLIIRLDQLQPVAFNETIRRQMLQELFDEWLGAEVQQTLNTL”, the protein production result is “failed”.

In the case of “MTMLQIVGALILLIAGFAILRLLFRALTSTASALAGFILLCLFGPALLAGYITERITRLFHIRWLAGVFLTIAGMIISFMWGLDGKHIALEAHTFDSVKFILTTALAAGLLALPVQIRTIQQNGLTPEDISKEINGYYCCFYTAFFLMACSAYAPLIALQFDISPSLMWWGGLLYWLAALVTLLWAASQIQALKRLTSAISQTLEEQPVLNSKSWLSSLQNDYSLPETLTERIWLTLISQRISRGELREFELADGNWLLDNAWYERNMAGFNEKLRESLSFTPDELKTLFRNRLNLSPEANDDFLDRCLDGGDWYPFSEGRRFVSFHHVDELRICASCGLTEVHHAPENHKPDPEWYCSSLCRETETLCQDIYERSHTGFISDATANGLILMKLPETWSTNEKMFASGGQGHGFAAERGNHIVDRVRLKNARILGDNNARNGADRLVSGTEIQTKYCSTAVRSVGAAFDGQNGQYRYMGNHGPMQLEVPRDQYAGAVETMKNKIREGKVPGVTDPAEASRLIRRGHLTYTQARNITRFGTIESVTYDIAEGSVVSLAAGGISFALTTSVFWLSTGDRDAALQTAAVQAGKTFTRTLAVYVTTQQLHRLSVVQGMLKHIDFSTASPTVRQALQKGTGAGNISALNKVMKGTLVTSLALVAVTTGPDMIKMLRGRISGAQFIRNLAVASSGVAGGAVGSVAGGILFSPLGPFGALTGRVVGGVLGGMIASAVSGKIAGALVEEDRVKILAMIQEQVTWLAGSFLLTGHEIENLNANLARVIDQNALEIIFAAGIQQRAATNMLIKPLVVSIIRQRPVMEYDASHLGNMVNRLEETLPPELPA”, the protein production result is listed as “failed”.

Regarding “MTMTHLNRLILISLLFVSLLLKSSTASSTVVDEGNRTSRNFRYRTHRFVPRFNHHPYHVTPHRSCDSFIRPYARSMCIELQRIHRSSRKQPLLSPPPPEIDPRYGVDKRLVPSGPNPLHN”, the protein production entry is reported as “failed”.

Consider “MTMTRERLYLFDTTLRDGQQTPGIDFSVEDKIAIAKLLDEFGMDYVEGGYPGANPTDTAFFQQKRTASAKFVAFGMTKRAGVSASNDPGLAALVQSKSDAICFVAKSWDYHVRVALGCTNEENLESIKTSVETAVASGKEAMVDCEHFFDGFKANPDYALACAKTAYDAGARWVVLCDTNGGTQPSEVRTIVAKVIASSIPGDHLGIHAHDDTGQAVANSLAAVEAGVRQIQGTLNGIGERCGNANLISIVPTLALKPAFADRFVSGISAEALTGISRLSRAFDELLNRAPEAQAPYVGASAFATKAGIHASALAKEPATYEHVPPESVGNRRRVMVSDQGGKANFLAELKRRGIEVPRDDHRLDALISVVKEREAEGYAYEGADASFELLARKMLHGLPEFFNVTSFRCMVERRFDANGNLKTVSEAIVKVEVDGEEKMSVAEGHGPVNALDIALRKDLGKYQSEIVDLELADFKVRILNGGTEAITRVLIESHDGTGARWWTVGVSENIIDASFQALMDSIIYKLMKNREMAGLVAAE”, for which the protein production entry is recorded as “failed”.

As for “MTNDKPFVDLRQYDQSWFDRGRSAWYILLWWLVQAIAFPLTPHFSSNIRCWILRLFGARIGKGVVVRPTARFTFPWKVTIGDYSWVGDDVVFYSLDEIHIGQHCVISQKSYLCTGSHDIQDPTFRLKVAGITIGNGAWVATDCFIAPGVQIGANAVIGARSSVFTSMPTGQVCWGSPCRPQHPRLKE”, the protein production entry is “failed”.

For “MTNFKDNDGDGTKLHVVMFPWLAFGHMVPYLELSKLIAQKGHKVSFISTPRNIDRLLPWLPENLSSVINFVKLSLPVGDNKLPEDGEATTDVPFELIPYLKIAYDGLKVPVTEFLESSKPDWVLQDFAGFWLPPISRRLGIKTGFFSAFNGATLGILKPPGFEEYRTSPADFMKPPKWVPFETSVAFKLFECRFIFKGFMAETTEGNVPDIHRVGGVIDGCDVIFVRSCYEYEAEWLGLTQELHRKPVIPVGVLPPKPDEKFEDTDTWLSVKKWLDSRKSKSIVYVAFGSEAKPSQTELNEIALGLELSGLPFFWVLKTRRGPWDTEPVELPEGFEERTADRGMVWRGWVEQLRTLSHDSIGLVLTHPGWGTIIEAIRFAKPMAMLVFVYDQGLNARVIEEKKIGYMIPRDETEGFFTKESVANSLRLVMVEEEGKVYRENVKEMKGVFGDMDRQDRYVDSFLEYLVTNR”, the protein production entry is given as “failed”.

Turning to “MTNHEQVLTDYLAAFIEELVQAGVKEAIISPGSRSTPLALMMAEHPTLKIYVDVDERSAGFFALGLAKASKRPVVLLCTSGTAAANYFPAVVEANLSQIPLIVLTADRPHELRNVGAPQAMDQLHLYGSHVKDFTDMALPENSDEMLRYAKWHSSRAVDIAMKTPRGPVHLNFPLREPLVPILEPSPFTATGKKHHHVH”, the protein production entry is reported as “failed”.

On to “MTNIFASWGLIKLEIVRALRNRKFLFFSVIYPSALFLLIAGSADSTTKVEGTGLSLPTFFMVSMASFGALTAVLMGNSERIAKERESGWVRQLRLTTLPGRGYVLAKTASAAVISLPSILIVFVVAAAVKNVRLDAWQWLALTGTIWVGSLVFAALGVAIGYLATGDAVRPITMIVYFGLSMLGGLWMPTTTFPDWLQSIAKWLPTHAYAALGQAIELGNAPQAKDIAILAVSFVLFAGGAAWLYRKDTLKA”, for which the protein production result was “failed”.

In the case of “MTNILILMEREIIKILSVVEFHPLILAFHLGLMLAGVSLLSYSLFLILVKKVDIMLPLVISFMAYLTSLILLILILLLETYRFLIFDGRILVKNSLLTRNEFKFSLRDKNLIIGFYDKASLGKFAIIYGDRLLFKFLTQQKNIRLIKNFVVKSGYRLGGTYKICRVCGSINEENAEYCDFCGSREVSPYDLYWID”, the protein production result is reported as “failed”.

“MTNITASIVLYNNPIDQIRQCIESMQADTRVHVLLVDNSEKKGGYTGLAADNVEILDAPGNVGFGRGHNLVLGRLAALRSEVHLVVNPDIVVSAGCVQAVADVLRQRKDVTLVGPRVVSPDGALYRSCKLLPTPWNLFARRFAPRQLYAAADARYELEAFGYDRELRLHNLSGAFLAFRSEAFTALGGFDPRYFMYLEDVDICRRAAGLGAVIFLPQAEVVHEHGKGSYRSWRLLREHMRSAILYFNRFGWFVDAERRLLNRETLARVNDMRSVVLEHHHHHH”: the protein production entry is “failed”.

Turning to “MTNLELSGSQSYLNDESTANLSSLAGKFLVQFWGVRGLIPTPSSNTSRYGGNTACVEMQVAGKRLIFDGGTGLRILGKAWQHLQQPLEAHLFFTNSQSNRIQGFPFFAPAFIAGNCFHIYGGAASNGASIKQCLCDQMLQPHFPYPLQVMQSELQFYPLTPDSEVKLDDVTIRTALINQTQRSIGYRVTWQEYSVAYVTDLNMSAEQGEREQVLQIIQDVDLLIANATYTPPTSHDHESVDLLWQAAVEMAQKAGVRKLIISHHHPDDHDDFLDQVEKEVQSTFSDALLACEGLALPVFLEHHHHHH”, the protein production entry is given as “not failed”.
